No end group written: not given here.
Assay: Solubility of VS fragments in water
Format: physicochemical
Experimental: Accordingly, the VS48 is apt to be dissolved in a solvent directly without any assistance of solubilizers (such as a tag protein, TRX) and with no sediments being produced. The solvent can be any solutions comprising similar osmotic pressure to body's liquid of organisms (such as plasma), for example 0.85-0.9% saline. Preferably, the solvent is 0.85-0.90% saline, which is dramatically stable as store and is capable of being stored for one year under 4° C.

GPDICGPGTKKVHVIFNYKGKNVLINKDIRCKDDEFTHLYTLIVRPDN (cysteines drawn unpaired) [VS48]
solubility: 1000 µg/mL
